The results in this text go back to patent US20050129695A1 (published 2005).

One test concerns the target T1, Aβ38 peptide (1-38) (UniProt P05067 672-709).
T1 construct: domain: Aβ38 (1-38 peptide); Injected over immobilized antibodies in BIAcore; also called 1-38 peptide
The test is described as follows: BIAcore 3000, antibody amine-coupled to CM5, peptide injected; qualitative. Here is the method:
(§1) BIAcore 3000, CM5 sensor surface, amine coupling kit, HEPES buffered saline (HBS, 10 mM HEPES 150 mM NaCl, pH7.4 with 3 mM EDTA and 0.005% Tween-20) and 10 mM sodium acetate pH 4.5 were purchased from Biacore, Inc. (Piscataway, N.J.). Anti-Aβmonoclonal antibodies (100 ug/mL) were dialyzed against HBS diluted 1:10 with water. Then, the dialyzed mAb solution was diluted 1:10 into 10 mM sodium acetate pH 4.5. The CM5 sensor surface was equilibrated in the BIAcore 3000 with HBS. Each antibody was immobilized onto a flow cell using the immobilization wizard provided in the operating software and the protocols supplied with the amine coupling kit. The wizard was set to immobilize 2500 RU of antibody. Typically 2000-3000 RU were actually immobilized.
(§2) For each mAb response, data as a function of time were collected (FIG. 46). From the sensorgram, report points are taken 10 seconds prior to the injection of the peptide, 10 seconds prior to the completion of the association phase, and 60 seconds into the dissociation phase. […] These calculations are made possible by assuming that 1 RU=1 pg of peptide (or protein)/mm².
(§3) Due to the potentially multiple aggregation states of the 1-38 and 1-42 peptides, a quantitative analysis of the binding constants is not possible. However, a qualitative analysis is possible. FIG. 47 ranks the mAbs as a function of binding ratio and fraction remaining on the surface after 60 seconds reflecting the stability of the complex. From this analysis C705 and C707 appear to be capable of binding to “monomeric” peptide, where as C701 and C706 requires the peptide to be aggregated to some extent before they can bind.
(SPR reads the build-up and loss of mass on a sensor chip optically.)

A further test addresses T2, human Aβ1-42 (human, UniProt P05067 672-713).
T2 construct: domain: Aβ1-42; same polypeptide, aggregation state differs; also called Aβ42; 1-42 peptide
The test is described as above. On the procedure:
as §1, §2, §3

T1 sequence (P05067 672-709 limits assumed): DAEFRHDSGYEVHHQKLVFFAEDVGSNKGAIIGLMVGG
T2 sequence (P05067 672-713 limits assumed): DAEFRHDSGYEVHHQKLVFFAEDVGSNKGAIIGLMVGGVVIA

B1: anti-Aβ monoclonal antibody C707 (antibody, V domains shown)
VH: EVQLQQSGPDLVKPGASVKTSCKTSGYSFTEYIMSWVRQSHGKSLEWIGSINPNTGGSRYNQKFKGKATLTVDKSSSTAYMEFRSLTSEDSAVYYCARGDFDYWGQGTTLTVSS
VL: DIVMTQAAFSNPVTLGTSASISCRSSKNLLHSNGITYLYWYLQRPGQSPQLLISRVSNLASGVPNRFSGSESGTDFTLRISRVEAEDVGVYYCAQLLELPFTFGSGTKLEIKR
notes: Tested as protein G purified IgG, detected with goat anti-mouse IgG; also called C707 mAb
Regarding B1, the binding result in the test with Aβ38 peptide (1-38) and with human Aβ1-42 was “binds” each time.

B2: anti-Aβ monoclonal antibody C705 (antibody, V domains shown)
VH: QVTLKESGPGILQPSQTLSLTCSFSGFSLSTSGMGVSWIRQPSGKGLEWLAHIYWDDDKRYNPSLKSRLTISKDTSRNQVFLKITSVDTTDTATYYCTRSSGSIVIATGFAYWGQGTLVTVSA
VL: DVMMTQTPLSLPVSLGDQASISCRSSQSLVHSNGNTYLEWYMQKPGQSPMLLIYKVSNRFSGVPDRFSGSGSGTDFTLKISSVEAEDLGVFYCFQGSRVPLTFGAGTKLELKR
notes: Tested as protein G purified IgG, detected with goat anti-mouse IgG; also called C705 mAb
Regarding B2, the binding result with Aβ38 peptide (1-38) and in the test with human Aβ1-42 was “binds” throughout.

B3: anti-Aβ monoclonal antibody C701 (antibody, V domains shown)
VH: EGQLQQSGAELVRSGASLKLSCTASGFNIKDHYVHWVRQRPEQGLDWIGWIAPKNGYSESAPKFQGKASMTADTSSNTVYLQLSSLTSEDTAVYYCFAGFYDSSLYWGQGTTLTVSS
VL: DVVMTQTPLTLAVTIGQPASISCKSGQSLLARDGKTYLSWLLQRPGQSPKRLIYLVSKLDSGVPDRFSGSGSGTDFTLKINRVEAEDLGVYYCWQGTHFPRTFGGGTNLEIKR
notes: Tested as protein G purified IgG, detected with goat anti-mouse IgG; also called C701 mAb
Consider B3, for which the binding result in the test with Aβ38 peptide (1-38) and in the test with human Aβ1-42 was “binds” in each case.

B4: anti-Aβ monoclonal antibody C706 (antibody, V domains shown)
VH: QVQLQQSGPELMKPGASVKISCKATGYTFSTSWIEWIKQRPGHGLEWIGEVLPGSGKSNHNANFKGRATFTADTASNTAYMQLSSLTSEDSAVYYCAREGSNNNALAYWGQGTLVTVSA
VL: QIVLTQSPAIMSASPGEKVTMTCSASSSVSYMHWYQQKSGTSPKRWIYDSSRLASGVPSRFSGGGSGTSYSPTISNMEAEDAATYFCQNWRSSPTFGAGTKLELKR
notes: Tested as protein G purified IgG, detected with goat anti-mouse IgG; also called C706 mAb
Turning to B4, the binding result in the test with Aβ38 peptide (1-38) and with human Aβ1-42 was “binds” each time.
